Results on 2 molecules are retold here after PMC11384143, “A pan-allelic human SIRPα-blocking antibody, ES004-B5, promotes tumor killing by enhancing macrophage phagocytosis and subsequently inducing an effective T-cell response” (Antibody Therapeutics, 2024).

Experiment [1] has as its target T1, 6 × His tagged huSIRPγ ECD recombinant protein (Homo sapiens (Human)., UniProt Q9P1W8).
T1 construct: signal regulatory protein gamma (SIRPγ, SIRP beta2), human, extracellular domain; also called signal regulatory protein gamma; SIRP beta2; source: bought: KACTUS
Briefly: SPR; Biacore T200, 25°C; antibody captured on anti-human IgG (Fc) CM5 chip (80 ± 12 RU); 6 × His tagged SIRP analyte 30–0.9375 nM in 1× HBS-EP+; 1:1 binding model. Particulars: both partners purified. Background: SPR reads the build-up and loss of mass on a sensor chip optically.

The target of experiment [2] is T2, 6 × His tagged cynomolgus SIRPα ECD recombinant protein (Macaca fascicularis, UniProt A0A2K5VYQ9).
T2 construct: signal regulatory protein alpha (SIRPα), cynomolgus monkey, extracellular domain; also called cynomolgus monkey SIRPα; source: bought: KACTUS
The description is as above. Particulars: both partners purified.

In experiment [3] the target is T3, cynomolgus SIRPα overexpressed on CHOK1/cSIRPα cells (Macaca fascicularis, UniProt A0A2K5VYQ9).
T3 construct: signal regulatory protein alpha (SIRPα), cynomolgus monkey, overexpressed on CHO-K1 cells; also called cynomolgus SIRPα-expressing cells; source: CHOK1/cSIRPα cell line, bought: Chempartner
Nature of the experiment: flow cytometry on cells; serial dilutions of antibody on CHOK1 cells overexpressing SIRPα, 1 h at 4°C; Alexa Fluor 647 anti-human IgG Fcγ secondary antibody; MFI. Particulars: one partner purified. (A flow cytometer gives signals particle by particle.)

T1 sequence (Q9P1W8 29-360): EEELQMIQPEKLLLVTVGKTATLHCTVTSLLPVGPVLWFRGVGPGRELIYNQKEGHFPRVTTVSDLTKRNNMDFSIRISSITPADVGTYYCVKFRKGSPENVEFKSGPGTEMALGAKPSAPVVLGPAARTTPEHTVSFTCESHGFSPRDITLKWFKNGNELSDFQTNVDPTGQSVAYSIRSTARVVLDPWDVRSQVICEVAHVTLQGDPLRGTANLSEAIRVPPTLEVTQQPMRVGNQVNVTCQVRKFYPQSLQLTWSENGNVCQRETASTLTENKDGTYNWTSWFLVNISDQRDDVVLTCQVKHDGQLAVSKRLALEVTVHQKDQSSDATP

B1: HEFLB (an analogue of BI 765063) (antibody, V domains shown)
VH: EVQLVQSGAEVKKPGESLRISCKASGYSFTSYWVHWVRQMPGKGLEWMGNIDPSDSDTHYSPSFQGHVTLSVDKSISTAYLQLSSLKASDTAMYYCVRGGTGTLAYFAYWGQGTLVTVSS
VL: DVVMTQSPLSLPVTLGQPASISCRSSQSLVHSYGNTYLYWFQQRPGQSPRLLIYRVSNRFSGVPDRFSGSGSGTDFTLKISRVEAEDVGVYYCFQGTHVPYTFGGGTKVEIK
notes: human IgG4; also called analogue of BI 765063 (OSE-172)
Turning to B1, the results for the binding result in experiment [1], in experiment [2] and in experiment [3] were “no binding (tested: 30 nM (highest analyte concentration))”, “no binding (tested: 30 nM (highest analyte concentration))” and “no binding”, respectively.

B2: hu1H9 (an analogue of FSI-189, Gilead) (antibody, V domains shown)
VH: QVQLVQSGAEVKKPGASVKVSCKASGYTFTSYWITWVKQAPGQGLEWIGDIYPGSGSTNHIEKFKSKATLTVDTSISTAYMELSRLRSDDTAVYYCATGYGSSYGYFDYWGQGTLVTVSS
VL: DIQMTQSPSSLSASVGDRVTITCRASENIYSYLAWYQQKPGKAPKLLIYTAKTLAEGVPSRFSGSGSGTDFTLTISSLQPEDFATYYCQHQYGPPFTFGQGTKLEIK
notes: human IgG4
For B2, the binding result in experiment [1] was “binds”.
